# Source: the supplement of paper PMC12042874
# ± gives the uncertainty stated by the source.
# Assays:
# [1] = amyloid nucleation score (Sup35N fusion, yeast selection) (log enrichment); library NNK1; higher = more nucleation; inactive = no reads after selection
# Outline: (§1)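 Random libraries were run with three technical output replicates. In each, psi-negative yeast expressing Sup35N fused to peptides of 20 random codons were induced 24 hours with 100 μM copper sulfate and grown 7 days at 30°C on medium lacking adenine and uracil, and input and output plasmid inserts were Illumina-sequenced. The nucleation score is the DiMSum log enrichment of output over input reads, centred on the mode score of non-aggregating sequences, and sequences under 100 input reads were excluded.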
# [2] = amyloid nucleation score (Sup35N fusion, yeast selection) (log enrichment); library NNK2; higher = more nucleation; inactive = no reads after selection
# Outline: as §1
Substance,amyloid nucleation score [1],amyloid nucleation score [2]
SRKVKVWPVGLRRLVMFFVN,1.43 ± 0.53,–
WTYWGSCGGLWSKIFIYFLL,3.66 ± 0.078,–
TRTPAWGWFPQST,-0.105 ± 0.81,–
FTRQLWYMSICRYFQLPTFY,1.95 ± 0.56,–
NAGMSLRTFSLYSSWLIVPV,0.179 ± 1,–
LFIKVLLGFF,0.32 ± 0.45,–
HCRFWRTFDGSNGRNIENSD,0.986 ± 1.1,–
FGQCSSLVLT,inactive,–
QMGCAYEDARRSHDFKCCFG,0.013 ± 0.42,–
ILSGRRDNSAERGRGGLWVM,-0.206 ± 1.2,–
LFLSSCLNSGLGGTL,0.105 ± 0.29,–
PTMLKNRGVLSQPHIIFSYR,-0.333 ± 0.34,–
TKDRFYEC,0.419 ± 0.58,–
IIRFTTFPCFNVR,2.1 ± 0.13,–
VLLQELLSYITIGCLELGFG,0.11 ± 0.3,–
IWGKC,-0.644 ± 0.76,–
RFLSVISDKTIAYWPSDVVS,0.377 ± 0.99,–
DAQWAYYTRTYFWYVFSAVC,0.27 ± 0.23,–
EGSIFCMRNCRTIWCSEE,-0.359 ± 0.33,–
SHVLCSDTNTI,inactive,–
FAYEAWLMR,-0.077 ± 0.27,–
YKSIWTRLGSGRSRVGLSRL,-0.38 ± 1,–
EISQNTL,-0.672 ± 0.32,–
LRYFDFCISRLDSEGN,0.264 ± 0.64,–
VYVFLADNGSDELLMLVLTG,0.12 ± 0.28,–

Substance,amyloid nucleation score [1],amyloid nucleation score [2]
SSTAEDTMWARGSNKTLYQS,0.148 ± 0.44,–
ANIHYL,2.63 ± 0.12,–
SLQISCQWYAVWGHMLLSDF,inactive,–
WTISSKGFFCWINCGLLQKR,5.704 ± 0.05,–
AGVIDT,0.171 ± 0.79,–
RGHLKLVTNYISMSRVSYFS,2.07 ± 0.16,–
YYFILYGSVNQHRTSIFRAR,5.08 ± 0.059,–
VKYFSYDIVGVGREYYFKTT,–,-0.555 ± 0.76
KRSCDQVCLLSRLIGQAGEW,–,2.26 ± 0.1
PEGISNGLK,–,-1.44 ± 0.55
IGCLVYHIITRVFVFVSPLF,–,inactive
FYFKRQNNNDQVIVTHTT,–,-0.103 ± 0.61
GFNLKVVVITTFDAFYYHAT,–,inactive
FWVPSLSTYLSFFGKFRDWA,–,-0.347 ± 0.5
GMRADSYCVRVGWFLCQNIN,–,7.002 ± 0.07
AFMSYTSSSRYPVCYLSKFH,–,-0.74 ± 1.1
TYHIYFVCLKSLWRFGEDCL,–,4.37 ± 0.055
ISDGCCGMLNAYCFTLVNCK,–,4.18 ± 0.062
DVIPRVMIKALT,–,0.063 ± 0.56
VGVVLFFFVLCYWVKT,–,-0.79 ± 0.41
LYAECFYATILNGDECRWRT,–,0.344 ± 0.31
SSQFR,–,0.705 ± 0.44
DYDEIMRLMLWSSLLLFR,–,0.47 ± 0.34
GSDAVR,–,2.7 ± 0.082
FNLTICSLDVPTFL,–,-0.549 ± 1

Substance,amyloid nucleation score [1],amyloid nucleation score [2]
WYCMNSGASMLCGLRQARFL,–,-0.715 ± 0.76
TPSKKDGECWNFYRTMWFTG,–,-0.492 ± 0.79
CYSYWPRSPFIWY,–,-0.978 ± 1.1
GIMSFG,–,1.66 ± 0.43
VRRHADRGGVLAEISNEVVQ,–,0.608 ± 0.24
LYSYDLTC,–,1.78 ± 0.13
FAFIYVIT,–,inactive
RVSMFKDLKYNGSYSWNSHG,–,-1.22 ± 0.41
RIWKWLLTQICFIRAQPLM,–,0.49 ± 0.31
FAMRTSKKVSRTTAGGTDPF,–,-0.696 ± 0.54
TGLDFGNLLLARCMSRV,–,0.43 ± 0.32
DISYGSSDINHCLVTYMWQC,–,0.192 ± 1
NQKSLFVARETSTMFPSPYV,–,-0.141 ± 0.38
LPGSYNYKGSHSQTNWFLDK,–,-2.09 ± 1
CYSMSRVVSNGEKHYD,–,0.675 ± 0.4
LSSKCYVA,–,-0.874 ± 1
LFIDLEMLFSPRN,–,5.471 ± 0.048
DRVCAGLKPVRNN,–,0.836 ± 0.31
RVCPVSG,–,-0.068 ± 0.79
LYSRSTSILDERWSTVIILL,–,2.5 ± 0.23
IELLYIRYK,–,-2.09 ± 1.1
RYRWARLHGVLVHDWLLLIW,–,inactive
HGTIFTIYVC,–,-0.875 ± 0.42
YYVLWSGVGIVMDSAYDTIC,–,-0.017 ± 1
GVLGTLF,–,-1.13 ± 0.76

Substance,amyloid nucleation score [1],amyloid nucleation score [2]
AFMCWSYRS,–,6.393 ± 0.043
TDMWPVYANRVFYNMSWSRP,–,inactive
FFWNAGCSELFGEGHYNSLL,–,inactive
TYPHVLTP,–,-0.022 ± 0.37
LFTVLKTVWANNNTYDSKQK,–,-1.23 ± 0.78
DNLSGMIPTKTVDSSRP,–,0.611 ± 0.81
HLHPGVYLKPFDGCGIINGI,–,0.213 ± 0.8
VVDVVIGYWGRVMSDGCVAG,–,0.816 ± 0.24
VPEFCVSSCNSVNLRASE,–,1.78 ± 0.14
NWLQFF,–,0.966 ± 0.13
IIRPVFILNLPYLFRCVG,–,0.465 ± 0.28
HVGFHQKVRSELCRA,–,0.087 ± 0.51
YKFRYWAYFFSDVAGVI,–,-1.75 ± 0.75
QIELGALNNRCGNRDGSGDW,–,-0.842 ± 0.35
KSPPFMGSAERVSRRNGRGL,–,-0.417 ± 0.36
CKIRNDSSSSRLVIHILDTA,–,6.357 ± 0.059
QFVNQRSYKGSLTFFMIRGR,–,inactive
PTLHMGMPN,–,-0.013 ± 0.79
IWHSVWYP,–,-0.318 ± 0.76
FITHKDYLFAGQ,–,-1.16 ± 0.76
CHANFNVG,–,1.58 ± 0.19
LFGHRFPSYL,–,-0.152 ± 1
MGHRFLLRRLSFIADLLV,–,-1.12 ± 1
TNAACSPLTCGHQMAVSPNY,–,0.358 ± 0.32
FSGLTDHFRSYLMYSAWTNI,–,-0.238 ± 0.48

Substance,amyloid nucleation score [1],amyloid nucleation score [2]
YNPNCPCICS,–,6.823 ± 0.026
MLCVFRVLPMLNWY,–,-0.257 ± 0.48
TSGQNESDA,–,0.578 ± 0.81
IWFRIQVCEIPSLIQTIVRR,–,-0.064 ± 0.32
SLFVITYRPAYSSDFILNGG,–,0.763 ± 0.43
SLFRVKGAVLEVLVPRMLLY,–,0.51 ± 0.41
KGRGCRFLMLYYRVYMFRGS,–,0.471 ± 0.5
YVYTLGI,–,-0.337 ± 1.1
NSRGN,–,-0.293 ± 0.56
LPYYKHCNRLTNVTCLYKRR,–,3.34 ± 0.15
HGYHSGTLIALYVDN,–,inactive
GIFWTVNIGEICGAIEWSEG,–,0.276 ± 0.29
MTCSTWMQLVRYTSVICILT,–,inactive
HCNLSWSCTSGIALSRT,–,4.54 ± 0.1
RNFFPHGFWSLQTKYNVLFM,–,5.684 ± 0.05
DKSNLARFTSSKWS,–,0.426 ± 0.35
GTVLAIRQLVSRCSGGVVGG,–,1.28 ± 0.24
LNLGILAFSKVKIGVFQFYE,–,6.834 ± 0.037
RKLIYSICKYVFALSVTIVG,–,-1.3 ± 0.32
CVSEARRIE,–,-0.36 ± 0.35
YFRMNPKFVCTKYSNAEYLS,–,-0.427 ± 0.64
SWVSFDKSLHMGVVYDRLRR,–,inactive
IVKYLVCEQTKILCMMCTCD,–,8.891 ± 0.068
SIDSRYW,–,-0.283 ± 0.63
KARLIAITHLPRYYWSFGVL,–,0.388 ± 0.62

Substance,amyloid nucleation score [1],amyloid nucleation score [2]
CLDVLLDKGSADIYFRQSSN,–,-1.06 ± 0.61
PKFTMVPNNGMQVGIARNKW,–,0.43 ± 0.29
AAFVAYLAYFLMFSSCFCIY,–,inactive
LFIICNSVVHMDLASVGNVS,–,8.409 ± 0.043
CFNIQNFELNRVMNLFYCRY,–,6.37 ± 0.075
TLMGNVRTCPPAGRRATTAS,–,0.966 ± 0.22
VLESYFDTYM,–,-2 ± 0.76
AYGVIGWCWSYGERNWVHVR,–,0.377 ± 0.49
CNRMGFHMFDCF,–,inactive
SGVIEIMFEKSHRLHCCLFC,–,1.08 ± 0.41
FFLAPKGKTSYGRGN,–,inactive
GSPLLVNDQSDGMYTSEISF,–,-1.32 ± 1.1
HLDPRAPSVVWTMADGEEDA,–,0.837 ± 0.22
AVGNMDVQEGFTTSRADRGL,–,0.913 ± 0.21
ESIGVINCYWIWATSIPLEG,–,inactive
TLHWK,–,-0.667 ± 0.33
RTEEQ,–,-0.254 ± 0.54
LNSGCAVVLCADSRHSNEPD,–,-0.062 ± 0.65
RQTGRLDFRTISRVKVDVIV,–,1.92 ± 0.28
SWGSVRNRMCMSGGRKSSDA,–,inactive
PVYSSFYCCYVWHRNFRKYT,–,-0.975 ± 0.29
GYSGVLILWEVVICWYGVTG,–,-0.313 ± 0.61
WELHMI,–,-0.61 ± 1.1
QIFLIKIGAFVLLLTVQ,–,-1.34 ± 0.54
RMCMAIKERSY,–,0.508 ± 0.38

Substance,amyloid nucleation score [1],amyloid nucleation score [2]
LMRLDLGT,–,-0.518 ± 0.32
LVTSCLQVEW,–,0.284 ± 0.28
GRELRTVRNAGPFDQWVGVS,–,5.79 ± 0.086
DESSSRDETCGVFTHLVCVV,–,-0.249 ± 0.28
NYDRTIW,–,-1.01 ± 0.48
LPIPIKETHLSCWAVDVGFD,–,-0.052 ± 0.2
TVNFYKRWSDCQLMSFIVRV,–,inactive
NCSSTIDFLFNLIHILKNF,–,inactive
IPRSPCDKENKSRHLHVAWA,–,-0.372 ± 0.45
CLYRTLWSCLWSGMMIFCTD,–,-1.77 ± 1
HIEVSACTRFLILNIHLRII,–,-1.46 ± 0.53
AINAKRHTWLFNLHSTFLCF,–,2.8 ± 0.14
VGKRIVHIFCVEFGSLMGC,–,inactive
TCTVASLYLGAFDWNYVEAV,–,3.08 ± 0.12
VVRAVYGYQFYGIVL,–,0.648 ± 0.25
RYSNKSDDYRGTSYLMYHVM,–,0.232 ± 0.45
CFIKVAVNWQL,–,8.826 ± 0.057
SRSFKVRNL,–,inactive
RMPFHVFRIKFHFLLRVPIQ,–,0.851 ± 0.52
AECNRHLLQAVSLY,–,-0.256 ± 0.29
GQPRLRSY,–,3.89 ± 0.1
